Laboratory results published in PMC12057046, “Elucidation of short linear motif-based interactions of the MIT and rhodanese domains of the ubiquitin-specific protease 8” (Biology Direct, 2025).

B1: KIAA1614 peptide 568-583 (uncharacterized protein KIAA1614), 16-mer library wild type / USP8 rhodanese domain (ubiquitin carboxyl-terminal hydrolase 8, residues 174-317) (parent)
chain 1: GMERVLGGLSSPLRLL
chain 2: KCETKEKGAITAKELYTMMTDKNISLIIMDARRMQDYQDSCILHSLSVPEEAISPGVTASWIEAHLPDDSKDTWKKRGNVEYVVLLDWFSSAKDLQIGTTLRSLKDALFKWESKTVLRNEPLVLEGGYENWLLCYPQYTTNAKV

Variants of: B1
Test: peptide-phage display deep mutational scan (M13, 16-mer library, displayed with a C-terminal GGGSG linker encoded by the 3' flank) selected against the GST-tagged USP8 rhodanese domain, four rounds; NGS counts summed over selection …
Conditions: with USP8 rhodanese domain (ubiquitin carboxyl-terminal hydrolase 8, residues 174-317), 10 µg GST-bait on MaxiSorp, pre-cleared on GST, 2 h at 4 °C, five washes with 0.05% Tween 20 in PBS, not graded, scale: average over two replicas of the peptide's fractional NGS count

Row | Variant | screen value
1 | chain 1 GMERVLGGLISPLRLL | 6.32e-06
2 | chain 1 GMERVLGGLPSPLRLL | 1.55e-05
3 | chain 1 GMERVLGGLESPLRLL | 1.55e-05
4 | chain 1 GMERVLGGLVSPLRLL | 6.32e-06
5 | chain 1 GMERVLGGLHSPLRLL | 0.00191
6 | chain 1 GMERVLGGLSSPLTLL | 0.00135
7 | chain 1 GMERVLGGLSSPLELL | 1.9e-05
8 | chain 1 GMERVLGGLSSPLKLL | 0.000355
9 | chain 1 GMERVLGGLSSPLVLL | 0.0436
10 | chain 1 GMERVLGGLSSPLNLL | 5.27e-05
11 | chain 1 GMERVLGGLSSPLGLL | 1.9e-05
12 | chain 1 GMERVLGGLSSPLILL | 0.00646
13 | chain 1 GMERVLGGLSSPLSLL | 0.00245
14 | chain 1 GMERVLGGLSSPLALL | 0.00719
15 | chain 1 GMERVLGGLSSPLQLL | 3.44e-05
16 | chain 1 GYERVLGGLSSPLRLL | 0.00188
17 | chain 1 GMERVLGGLSSSLRLL | 0.000236
18 | chain 1 GMERVLGGLSSTLRLL | 1.55e-05
19 | chain 1 GMERVLGGLSSQLRLL | 6.32e-06

Row | Variant | screen value
20 | chain 1 GMENVLGGLSSPLRLL | 1.9e-05
21 | chain 1 GMEWVLGGLSSPLRLL | 5.05e-05
22 | chain 1 GMEAVLGGLSSPLRLL | 1.55e-05
23 | chain 1 GMERPLGGLSSPLRLL | 0.00189
24 | chain 1 GMERSLGGLSSPLRLL | 0.000158
25 | chain 1 GMERWLGGLSSPLRLL | 0.011
26 | chain 1 GMERHLGGLSSPLRLL | 0.0085
27 | chain 1 GMERFLGGLSSPLRLL | 0.0191
28 | chain 1 GMERLLGGLSSPLRLL | 0.000344
29 | chain 1 GMERRLGGLSSPLRLL | 0.000121
30 | chain 1 GMERYLGGLSSPLRLL | 0.00426
31 | chain 1 GMERNLGGLSSPLRLL | 0.00579
32 | chain 1 GMERGLGGLSSPLRLL | 0.00207
33 | chain 1 GMERTLGGLSSPLRLL | 0.0104
34 | chain 1 GMERVLGGLSTPLRLL | 0.000682
35 | chain 1 GMERVLGGLSNPLRLL | 0.0195
36 | chain 1 GMERVLGGLSVPLRLL | 2.18e-05
37 | chain 1 GMERVLGGLSAPLRLL | 1.26e-05
38 | chain 1 GMERVLGGLSEPLRLL | 0.000128

The remaining lines, values ahead:

Row | screen value | Variant
39 | 6.32e-06 | chain 1 GMERVLGGLASPLRLL
40 | 0.000377 | chain 1 GMERVLGGLSSPLYLL
41 | 0.000346 | chain 1 GMERVLGGLSSPLHLL
42 | 0.000793 | chain 1 GMERVLGGLSSPLLLL
43 | 0.00337 | chain 1 GMERVLGGLSSPLWLL
44 | 0.0219 | chain 1 GMERVLGGLSSPLMLL
45 | 0.00138 | chain 1 GMERVLGGLSSPLFLL
46 | 1.26e-05 | chain 1 GMERVLGGLSSRLRLL
47 | 6.32e-06 | chain 1 GMERVLGGLSSLLRLL
48 | 6.32e-06 | chain 1 GMETVLGGLSSPLRLL
49 | 1.26e-05 | chain 1 GMELVLGGLSSPLRLL
50 | 0.0242 | chain 1 GMERDLGGLSSPLRLL
51 | 6.6e-05 | chain 1 GMERKLGGLSSPLRLL
52 | 0.00268 | chain 1 GMERMLGGLSSPLRLL
53 | 0.0217 | chain 1 GMERELGGLSSPLRLL
54 | 0.014 | chain 1 GMERQLGGLSSPLRLL
55 | 0.000433 | chain 1 GMERALGGLSSPLRLL
56 | 9.76e-05 | chain 1 GMERILGGLSSPLRLL
57 | 2.53e-05 | chain 1 GMERVLGGLSFPLRLL
58 | 6.32e-06 | chain 1 GMERVLGGLSRPLRLL
59 | 0.0401 | chain 1 GMERVLGGLSDPLRLL
60 | 6.32e-06 | chain 1 GMERVLGGLSYPLRLL
